Substitutions are numbered along the chain they refer to. Numbers in names are those of the source. Like-named read-outs stand apart in the source and are kept apart here.
B1: wtAS: Wild type glycoside hydrolase: amylosucrase 1G5A from Neisseria polysaccharea, SEQ ID NO: 13 (protein, listed as Neisseria polysaccharea)
chain: SPNSQYLKTRILDIYTPEQRAGIEKSEDWRQFSRRMDTHFPKLMNELDSVYGNNEALLPMLEMLLAQAWQSYSQRNSSLKDIDIARENNPDWILSNKQVGGVCYVDLFAGDLKGLKDKIPYFQELGLTYLHLMPLFKCPEGKSDGGYAVSSYRDVNPALGTIGDLREVIAALHEAGISAVVDFIFNHTSNEHEWAQRCAAGDPLFDNFYYIFPDRRMPDQYDRTLREIFPDQHPGGFSQLEDGRWVWTTFNSFQWDLNYSNPWVFRAMAGEMLFLANLGVDILRMDAVAFIWKQMGTSCENLPQAHALIRAFNAVMRIAAPAVFFKSEAIVHPDQVVQYIGQDECQIGYNPLQMALLWNTLATREVNLLHQALTYRHNLPEHTAWVNYVRSHDDIGWTFADEDAAYLGISGYDHRQFLNRFFVNRFDGSFARGVPFQYNPSTGDCRVSGTAAALVGLAQDDPHAVDRIKLLYSIALSTGGLPLIYLGDEVGTLNDDDWSQDSNKSDDSRWAHRPRYNEALYAQRNDPSTAAGQIYQDLRHMIAVRQSNPRFDGGRLVTFNTNNKHIIGYIRNNALLAFGNFSEYPQTVTAHTLQAMPFKAHDLIGGKTVSLNQDLTLQPYQVMWLEIA
B2: A289P-F290L: double mutant A289P, F290L of N. polysaccharea amylosucrase (protein)
chain: B1 chain with A289P, F290L
B3: A289P-F290C: double mutant A289P, F290C of N. polysaccharea amylosucrase (protein)
chain: B1 chain with A289P, F290C
B4: A289P-F290I: double mutant A289P, F290I of N. polysaccharea amylosucrase (protein)
chain: B1 chain with A289P, F290I
B5: F290D: single mutant F290D of N. polysaccharea amylosucrase 1G5A (protein)
chain: B1 chain with F290D

How the values were obtained:
[1] = tested on: Neisseria polysaccharea amylosucrase 1G5A (parent SEQ ID NO: 13) variants A289P-F290C, A289P-F290I and A289P-F290L; experiment: Kinetic parameters towards α-D-GlcpNAc-OAll acceptor, the three double mutants stated together; assay type: biochemical; conditions: sucrose 250 mM
Protocol: (§1) The double mutants A289P-F290C, A289P-F290I and A289P-F290L were produced and purified, as previously described in Example 1-1. The protein content was determined by the Nanodrop ND-1000 spectrophotometer. These mutants were tested on sucrose alone or supplemented with α-D-GlcpNAc-OAll acceptor, and compared to wtAS and F290K. Assays were performed at 30° C. in 50 mM Tris-HCl buffer, pH=7.0.
(§2) Enzyme assays were carried out in a total volume of 2 mL containing pure enzyme (0.037 mg, 0.076 mg and 0.046 mg when using A289P-F290C, A289P-F2901 and A289P-F290L, respectively).
(§3) The kcat/Km (α-D-GlcpNAc-OAll) value was calculated from the initial rate of formation of desired disaccharide (α-D-Glcp-(1→4)-α-D-GlcpNAc-OAll), corresponding to the initial rate of α-D-GlcpNAc-OAll consumed. As saturation was not achieved with the mutants, efficiency was calculated by linear regression analysis of the velocity versus substrate concentration plot.

[2] = tested on: OC[C@H]1O[C@@](CO)(O[C@H]2O[C@H](CO)[C@@H](O)[C@H](O)[C@H]2O)[C@@H](O)[C@@H]1O; experiment: Kinetic parameters towards sucrose donor, double mutant A289P-F290C; assay type: biochemical, Neisseria polysaccharea; conditions: other: sucrose donor (0-500 mM), Eadie-Hofstee plot, 30° C., pH 7.0
Protocol: as §1
(§4) Enzyme assays were carried out in a total volume of 2 mL containing pure enzyme (0.073 mg, 0.153 mg and 0.092 mg when using A289P-F290C, A289P-F2901 and A289P-F290L, respectively).
(§5) Kinetic studies of AS variants were performed in the presence of sucrose (0-500 mM). At regular time intervals (2-5 min), aliquots (200 μL) were removed, heated (95° C., 2 min) and centrifuged (18000 g, 5 min) All the samples were filtered on a 0.22 μm membrane and analyzed using HPLC material previously described. The initial rate of sucrose consumed, corresponding to the initial rate of fructose released, was expressed in mole of fructose released per minute and per gram of enzyme. The kinetic parameters kcat and Km were calculated using Eadie-Hofstee plot.

[3] = Kinetic parameters towards α-D-GlcpNAc-OAll acceptor; assay type: biochemical; conditions: 250 mM for both sucrose and α-D-GlcpNAc-OAll
Protocol: as §2, §3

[4] = HPLC screening of the single-mutant amylosucrase library for glucosylation of D-GlcpNAc; assay type: biochemical
Protocol: The protocol was established to enable the rapid identification of clones for which D-GlcpNAc glucosylation was improved. To obtain higher amounts of enzymes and facilitate detection of glucosylated compounds upon HPLC screening, mutants were produced in 96-DeepWell Format plates. Storage microplates containing monomutants were thawed and replicated to inoculate a starter culture in 96-well microplates containing, in each well, 150 μL LB medium supplemented with ampicillin (100 μg/mL). After growth for 24 h at 30° C. under agitation (200 rpm), plates were duplicated into 96-Deep Well plates containing, in each well, 1.1 mL LB medium supplemented with ampicillin (100 μg/mL) and IPTG (1 mM) to induce GST-AS expression. Cultures were then grown for 24 h at 30° C. under agitation (200 rpm). Plates were centrifuged (20 min, 3000 g, 4° C.) and the supernatant was removed. The cell pellet was resuspended in 200 μL of lysozyme (0.5 mg/mL), followed by freezing at −80° C. for 8 to 12 h. After thawing at room temperature, 100 μL of sucrose and 100 μL of acceptor (each at a final concentration of 73 mM) were added to each well. Enzymatic reaction was incubated at 30° C. during 24 h under agitation. The DeepWell plates were then centrifuged (20 min, 3000 g, 4° C.) and 300 μL of the supernatant was transferred to a filter micro-plate (PVDF 0.2 μm) to be clarified. […]
Efficiency of the glucosylation reaction was evaluated by HPLC analysis of the acceptor reaction product synthesized when using D-GlcpNAc as acceptor using a Dionex P 680 series pump, a Shodex RI 101 series refractometer, a Dionex UVD 340 UV/Vis detector and an autosampler HTC PAL. […]
For each of the 7 selected positions, 19 single mutants were generated (corresponding to each possible amino acid change). […] Both sucrose consumption and disaccharide formation were determined in order to calculate the glucosylation rate defined as the molar ratio of monoglucosylated acceptor versus/sucrose consumed.

[5] = HPLC screening of double-mutant libraries for variants able to glucosylate D-GlcpNAc; assay type: biochemical; conditions: α-D-Glcp-(1→4)-α-D-GlcpNAc (ED) from sucrose and D-GlcpNAc, microplate format
Protocol: The protocol was established to enable the rapid identification of clones for which D-GlcpNAc glucosylation was improved. To obtain higher amounts of enzymes and facilitate detection of glucosylated compounds upon HPLC screening, mutants were produced in 96-DeepWell Format plates. Storage microplates containing monomutants were thawed and replicated to inoculate a starter culture in 96-well microplates containing, in each well, 150 μL LB medium supplemented with ampicillin (100 μg/mL). After growth for 24 h at 30° C. under agitation (200 rpm), plates were duplicated into 96-Deep Well plates containing, in each well, 1.1 mL LB medium supplemented with ampicillin (100 μg/mL) and IPTG (1 mM) to induce GST-AS expression. Cultures were then grown for 24 h at 30° C. under agitation (200 rpm). Plates were centrifuged (20 min, 3000 g, 4° C.) and the supernatant was removed. The cell pellet was resuspended in 200 μL of lysozyme (0.5 mg/mL), followed by freezing at −80° C. for 8 to 12 h. After thawing at room temperature, 100 μL of sucrose and 100 μL of acceptor (each at a final concentration of 73 mM) were added to each well. Enzymatic reaction was incubated at 30° C. during 24 h under agitation. The DeepWell plates were then centrifuged (20 min, 3000 g, 4° C.) and 300 μL of the supernatant was transferred to a filter micro-plate (PVDF 0.2 μm) to be clarified. Supernatant filtration was carried out by centrifugation of the filter micro-plate (5 min, 2000 g, 4° C.) into a novel microplate for screening.
The method for the expression of the mutant libraries is described in Example 1-1.
Acceptor reaction products were analyzed by HPLC analysis using a C18-AQ column (Bischoff C18, 125×4 mm, 3 μm) kept at room temperature and eluted with 0.6 mL/min of ultra-pure water to detect α-D-Glcp-(1→4)-α-D-GlcpNAc formation (analysis time: 7 min). To evaluate the efficiency of the glucosylation reaction, it was carried out complementary HPLC analyses with a Biorad HPX-87K Carbohydrate Analysis column (maintained at 65° C., and eluted at a flow rate of 0.6 mL/min with ultra-pure water). By this way, it was possible to measure sucrose consumption by RI detection and concomitant α-D-Glcp-(1-4)-α-D-GlcpNAc formation by UV220 nm and determine mutant ability to synthesize the desired disaccharide α-D-Glcp-(1→4)-α-D-GlcpNAc (i.e., % Glucosyl units transferred onto acceptor derivatives=[Glucosyl units transferred onto acceptor derivatives]/[Glucosyl units transferred from initial sucrose]×100)
All clones producing sucrose-utilizing variants were then picked and cultured in 96-well microplates. Following cell lysis, the acceptor reaction in the presence of D-GlcpNAc was then carried out in microplate format. HLPC analysis time for each clone was reduced to 7 min for detection of α-D-Glcp-(1→4)-α-D-GlcpNAc. When disaccharide formation was detected, complementary analyses were performed to determine sucrose consumption and disaccharide formation with more accuracy in order to calculate the glucosylation yield.

[6] = data from ref. 83, cited from earlier work
[7] = Kinetic parameters towards sucrose donor; assay type: biochemical; conditions: for V250mM (initial rate of sucrose consumption): 250 mM sucrose; for behaviour (at high concentration): sucrose donor alone
Protocol: as §4, §5

[8] = Glucosylation of α-D-GlcpNAc-OAll by purified F290D, F290K and ASNPwt (146 mM sucrose + 146 mM acceptor); assay type: biochemical; conditions: purified enzyme; Sucrose=Acceptor=146 mM; compared with ASNPwt
Protocol: All assays were performed at 30° C. in 50 mM Tris buffer, pH=7.0. For the acceptor reactions, F290D, F290K and ASNPwt (1G5A) were tested on α-D-GlcpNAc-OAll.
Comparison of products synthesized by wild-type and AS variants. Reactions were performed in the presence of 146 mM sucrose alone or supplemented with 146 mM acceptor. The purified wild-type or mutated GST/AS were employed at 0.5 U/mL. The reactions were stopped by heating at 95° C. for 5 min. The final mixture was centrifuged at 18 000 g for 10 min, filtered on 0.22 μm membrane and analyzed by HPLC, as previously described.
Soluble and insoluble oligosaccharides produced during the reaction were identified by HPAEC using a Dionex Carbo-Pack PA100 column at 30° C. Before analysis, the insoluble fraction was solubilized in KOH at a final total sugar concentration of 10 g/kg. Mobile phase (150 mM NaOH) was set at 1 mL/min flow rate with a sodium acetate gradient (going from 6 to 500 mM within 120 min). Detection was performed using a Dionex ED40 module with a gold working electrode and an Ag/AgCl pH reference. Note that α-D-GlcpNAc-OAll (acceptor) and its derivatives are not oxidable products and thus are not detectable by HPAEC. Sucrose, glucose, fructose, α-D-GlcpNAc-OAll (acceptor) and its derivatives (glucosylation products) were quantified by HPLC, as previously described

Molecule | V250mM (initial rate of acceptor consumption) [3] | Glusosylation Yield to synthesize ED [5] [%] | V250mM (initial rate of sucrose consumption) [7] [µmol/min/g] | behaviour (at high concentration) [7] | further results
C=CCO[C@H]1O[C@H](CO)[C@@H](O)[C@H](O)[C@H]1NC(C)=O [α-D-GlcpNAc-OAll, allyl 2-acetamido-2-deoxy-α-D-glucopyranoside] |  |  |  |  | increase of catalytic efficiency towards α-D-GlcpNAc-OAll compared to variant F290K ([1]; three double mutants vs F290K): 3 fold; increase of catalytic efficiency towards α-D-GlcpNAc-OAll compared to wtAS ([1]; three double mutants vs wtAS): ≤ 395 fold
Neisseria polysaccharea amylosucrase 1G5A (parent SEQ ID NO: 13) variant A289P-F290C (Neisseria polysaccharea; A297P/F298C/G545D) |  |  |  |  | Km [2]: 18.9 mM
B1 | 290 µmol/min/g | 2 |  |  | glucosylation rate (formation of α-D-Glcp-(1→4)-D-GlcpNAc) ([4]; molar ratio of monoglucosylated acceptor versus sucrose consumed, sucrose and D-GlcpNAc 73 mM each, 30° C., 24 h, microtiter format): 2%; V250mM (initial rate of sucrose consumption) ([6]; 250 mM sucrose): 900 µmol/min/g; behaviour (at high concentration) ([6]; sucrose donor): saturation
B2 | 67 300 μmol/min/g | 100 | 1717 | saturation | 
B3 | 50 000 μmol/min/g | 100 | 2186 | saturation | 
B4 | 51 400 μmol/min/g | 100 | 946 | saturation | 
B5 |  |  |  |  | times more efficient for α-D-GlcpNAc-OAll glucosylation [8]: 10 times; times more efficient to form α-D-Glcp-(1→4)-D-GlcpNAc-OAll [8]: 20 times; increase of glucosylation rate compared to the wild type ([4]; acceptor D-GlcpNAc): 45 fold
